Measured values as given in patent US12497446B2, “Tetranectin-targeting monoclonal antibodies to fight against lethal sepsis and other pathologies” (The Feinstein Institutes For Medical Research, priority 2019, dated 2025).

Columns and labels:
[1] = test system: Balb/C mice subjected to lethal endotoxemia; assay: Animal model of lethal endotoxemia (LPS), animal survival; format: in vivo, mouse; conditions: i.p., 2 h post onset
Protocol: This study was conducted in accordance with policies of the NIH Guide for the Care and Use of Laboratory Animals and approved by the IACUC of the Feinstein Institute for Medical Research, Manhasset, New York, USA. To evaluate the role of TN in lethal sepsis, Balb/C mice (male, 7-8 weeks, 20-25 g) were subjected to lethal endotoxemia or sepsis induced by cecal ligation and puncture (CLP) as previously described. Briefly, the cecum of Balb/C mice was ligated at 5.0 mm from the cecal tip, and then punctured once with a 22-gauge needle. At 30 min post CLP, all animals were given a subcutaneous dosing of imipenem/cilastatin (0.5 mg/mouse) (Primaxin, Merck & Co., Inc., West Point, Pa.), and resuscitation with normal sterile saline solution (20 ml/kg). Recombinant TN or anti-TN polyclonal or monoclonal IgGs were intraperitoneally administered into endotoxemic or septic mice at indicated doses and time points, and animal survival rates were monitored for up to two weeks. To evaluate the role of TN in lethal sepsis, a few breeding pairs of the heterozygous TN (also called “CLCE3B”)-KO mice were obtained from the Jackson Laboratory (Stock No. 027554, Bar Harbor, ME, USA), and bred to produce homozygous TN KO as well as wild-type littermates. […]

[2] = test system: Balb/C mice subjected to CLP sepsis; assay: Animal model of lethal sepsis (CLP), animal survival; format: in vivo, mouse; conditions: for protection against lethal sepsis: i.p., 2 h post onset
Protocol: This study was conducted in accordance with policies of the NIH Guide for the Care and Use of Laboratory Animals and approved by the IACUC of the Feinstein Institute for Medical Research, Manhasset, New York, USA. To evaluate the role of TN in lethal sepsis, Balb/C mice (male, 7-8 weeks, 20-25 g) were subjected to lethal endotoxemia or sepsis induced by cecal ligation and puncture (CLP) as previously described. Briefly, the cecum of Balb/C mice was ligated at 5.0 mm from the cecal tip, and then punctured once with a 22-gauge needle. At 30 min post CLP, all animals were given a subcutaneous dosing of imipenem/cilastatin (0.5 mg/mouse) (Primaxin, Merck & Co., Inc., West Point, Pa.), and resuscitation with normal sterile saline solution (20 ml/kg). Recombinant TN or anti-TN polyclonal or monoclonal IgGs were intraperitoneally administered into endotoxemic or septic mice at indicated doses and time points, and animal survival rates were monitored for up to two weeks. To evaluate the role of TN in lethal sepsis, a few breeding pairs of the heterozygous TN (also called “CLCE3B”)-KO mice were obtained from the Jackson Laboratory (Stock No. 027554, Bar Harbor, ME, USA), and bred to produce homozygous TN KO as well as wild-type littermates. Age- and sex-matched wild-type (WT) or TN knockout (KO) C57/B6 mice were then used to induce CLP sepsis via identical procedures, and animal survival rates were compared for more than two weeks.

Molecule | protection against lethal endotoxemia [1] | protection in sepsis at sub-physiological doses ([2]; 0.1 mg/kg) | protection in sepsis at super-physiological doses ([2]; 1.0 mg/kg) | protection against lethal sepsis [2]
murine TN: prokaryotes-derived (E. coli) recombinant murine tetranectin (protein) ESPTPKAKKAANAKKDLVSSKMFEELKNRMDVLAQEVALLKEKQALQTVCLKGTKVNLKCLLAFTQPKTFHEASEDCISQGGTLGTPQSELENEALFEYARHSVGNDANIWLGLNDMAAEGAWVDMTGGLLAYKNWETEITTQPDGGKAENCAALSGAANGKWFDKRCRDQLPYICQFAIV | reproducible and dose-dependent protection | conferred reproducible protection | not associated with any protective effect | reproducible and dose-dependent protection
human TN: eukaryote-derived recombinant human tetranectin expressed in HEK293 kidney cells (ACROBiosystems) (protein, UniProt P05452 22-202, looked up) Tetranectin: EPPTQKPKKIVNAKKDVVNTKMFEELKSRLDTLAQEVALLKEQQALQTVCLKGTKVHMKCFLAFTQTKTFHEASEDCISRGGTLGTPQTGSENDALYEYLRQSVGNEAEIWLGLNDMAAEGTWVDMTGARIAYKNWETEITAQPDGGKTENCAVLSGAANGKWFDKRCRDQLPYICQFGIV | reproducible and dose-dependent protection |  |  | reproducible and dose-dependent protection
